In patent US20070092508A1, “Detoxification depot for Alzheimer's disease” (Recombiant Technologies, LLC, priority 2005, published 2007):
Non-standard residues stand in square brackets, D forms with d. No end group written: not given here.

What was measured:
[1] = test system: Aβ; conditions: AD model mice, after 1 day of treatment; cited from earlier work
[2] = target: Aβ (Homo sapiens, UniProt P05067); conditions: shortest fragment of Aβ1-40; cited from earlier work
[3] = target: Aβ fibril formation (Homo sapiens, UniProt P05067); conditions: microscopy; cited from earlier work
[4] = target: T1, biotinylated Aβ^1-42 peptide (Homo sapiens, UniProt P05067); assay: Direct ELISA: plate-immobilised capture peptide probed with biotinylated Aβ1-42; type: binding; conditions: 1 μg/well capture peptide, 1 μg/ml biotinylated Aβ, 2 hours; compared with scrambled or irrelevant control peptide (FIG. 1a)
T1 construct: purchased
Protocol: (§1) FIG. 1a graphically illustrates binding of biotinylated Aβ^1-42 and biotinylated Aβ^1-40 peptide (SEQ ID NO: 2) by RI peptide. 96-well plate was coated with the capture peptide (1 μg/well of retro-inverso [RI], scrambled [SCR] or an irrelevant control peptide), blocked with gelatin and probed with 1 μg/ml of biotinylated Aβ peptide for 2 hours and streptavidin peroxidase for 1 hour. Experiments were repeated and were calculated as Mean±SE (N=2) and expressed as pmols Aβ^1-42/ml of binding solution. Graded concentrations of biotinylated Aβ^1-42 peptide (SEQ ID NO: 3) was used as a calibration standard.
(§2) Testing the binding and stability of biotinylated Aβ peptides in binding solution.

[5] = target: T2, biotinylated Aβ^1-40 peptide (Homo sapiens, UniProt P05067); assay: Direct ELISA: plate-immobilised capture peptide probed with biotinylated Aβ1-40; type: binding; conditions: 1 μg/well capture peptide, 1 μg/ml biotinylated Aβ, 2 hours; compared with scrambled or irrelevant control peptide (FIG. 1a)
T2 construct: purchased
Protocol: as §1, §2

[6] = target: biotinylated Abeta 1-40 peptide; assay: binding experiments with the gel, ELISA of the solution
Sequence of biotinylated Abeta 1-40 peptide (peptide, as listed by the source): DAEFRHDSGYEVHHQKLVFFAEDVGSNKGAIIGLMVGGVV

Sequence of Aβ (P05067 672-711 limits assumed): as the sequence (peptide, as listed by the source) above
T2 sequence (P05067 672-711): as the sequence (peptide, as listed by the source) above
Sequence of Aβ (Homo sapiens, UniProt P05067) (P05067 672-711 limits assumed): as the sequence (peptide, as listed by the source) above
Sequence of Aβ fibril formation (P05067 672-711 limits assumed): as the sequence (peptide, as listed by the source) above
T1 sequence (P05067 672-713): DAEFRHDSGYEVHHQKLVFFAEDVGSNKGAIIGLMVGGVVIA

## GM1
[1]
  levels of Aβ in brain: reduced in half
  reduction of Aβ in brain: ~500 ng/g tissue

## KLVFF
[2]
  Aβ binding capacity: consistently high Aβ binding capacity
[3]
  effect on fibril formation in vitro: able to interfere with fibril formation

## gelsolin
[1]
  levels of Aβ in brain: reduced in half
  reduction of Aβ in brain: ~500 ng/g tissue

## phe-phe-val-leu-lys-Cys ([dF][dF][dV][dL][dK][dC]; not fully specified (C-terminus); printed as phe-phe-val-leu-lys-cys) [RI peptide]
[4]
  binding of biotinylated Aβ^1-42 to immobilised peptide: significant and specific binding
[5]
  binding of biotinylated Aβ^1-40 to immobilised peptide: significant and specific binding

B1: detox gel (RI gel): retro-inverso peptide phe-phe-val-leu-lys-Cys linked by its cysteine thiol to a cross-linked 8-arm PEG hydrogel (peptide)
peptide: FFVLKC
modifications: not fully specified; composed of D-amino acids; Cys thiol linked to vinyl sulfone-PEG of the gel matrix; C-terminus amidated per the note to Table 1
[6]
  percent of possible binding in a 1:1 complex: 5%
